The values below come from article PMC13381548.

This data set concerns NX4-NS20-NX1 (X-NS20-X) (designed (from TALE PthXo1)). The experiment in a line: BLI. The conditions noted are these: BLI: 25 mM Tris (pH 7 for NS20, pH 8 for NS14), 150 mM NaCl, 10 mM MgCl2, 0.5% BSA, 0.5% Tween-20, 25 C, EMSA: 1% agarose, 1x TAE, 110 V.

Turning to “AAAAAAATCAGACCGACATCTAATCCGCAACGA (double strand) [X-NS20-X random]”, the Kd (in general, the free concentration of one partner at which half of the binding sites on the other are occupied at equilibrium, for simple one-to-one binding) (10 mM MgCl2, stated weak interactions, Kd > ~700 nM) is more than 0.7 µM.

The sequence “AAAAAAATCTAGCAACCTCAAACAGACACCAGA (double strand) [X-NS20-X target]” came in with a Kd of 0.045 µM.
